Laboratory results reported in publication PMC3875647 (Worm, 2013).

Molecular target: the molecule itself
Assay: SEC-MALS

| Protein | stoichiometry N |
| --- | --- |
| MBP-AA-SAS5-NTD (SAS-5 residues 1–260 fused to MBP with a two-alanine linker) (domain or fragment, C. elegans, UniProt Q20010 1-260, looked up) MNNYDDLPCSIYFKKPTVQEFVDQPRVFEDSEVPAFQEVLQLPQERTKPPVPSTQPIVAAVEVAKKKSCLSAPKPRKEPPSHPALRQKTVAFGKTVNVSQTVEGTSRNSKKVLASTMSAQNTTTTEEQAAENWRDAMKTELQTIRTEIQEETARRQEELNAQNLVKMQELMSNFFQKITIPKQQAIEPVEKDKENFHESPRQSRQQKPASKIASAREVIKRDGVIPPEALTIIEQRLRSDPMFRQQIDNVLADAECDANR | 4 |
| MBP-AA-SAS-5 aa82-260 (domain or fragment, C. elegans, UniProt Q20010 82-260, looked up) HPALRQKTVAFGKTVNVSQTVEGTSRNSKKVLASTMSAQNTTTTEEQAAENWRDAMKTELQTIRTEIQEETARRQEELNAQNLVKMQELMSNFFQKITIPKQQAIEPVEKDKENFHESPRQSRQQKPASKIASAREVIKRDGVIPPEALTIIEQRLRSDPMFRQQIDNVLADAECDANR | 4 |
